This is an account of results in patent publication US20230212266A1 (FRED HUTCHINSON CANCER CENTER, published 2023).

Common to all, as to assay: BLI, mAb on anti-human Fc probe, antigen in solution
(In BLI a coated tip is dipped into the sample, and binding shifts an interference pattern.)

The target in test [1] is T1, SARS-CoV-2 receptor binding domain (RBD) (SARS-CoV-2, UniProt P0DTC2 319-591).
For test [2], the target named is T1, SARS-CoV-2 receptor binding domain (RBD). The source holds these as a separate data set.
Test [3] has the same target. The source holds these as a separate data set.
For test [4] the target is unchanged. The source holds these as a separate data set.
Test [5] shares this target. The source holds these as a separate data set.
The target is the same in test [6]. The source holds these as a separate data set.
Test [7] has the same target. The source holds these as a separate data set.
Test [8] shares this target. The source holds these as a separate data set.
Test [9] shares this target. This is another data set of the same source.
Test [10] has the same target. This is another data set of the same source.
Test [11] has the same target. The source holds these as a separate data set.
The target is the same in test [12]. The source holds these as a separate data set.
The target is the same in test [13]. The source holds these as a separate data set.
The target is the same in test [14]. The source holds these as a separate data set.
Test [15] shares this target. The source holds these as a separate data set.
Test [16] shares this target. The source holds these as a separate data set.
Test [17] has the same target. This is another data set of the same source.

Like-named read-outs stand apart in the source and are kept apart here.

B1: CV2-34 (antibody, V domains shown)
VH: QVQLVESGGGVVQPGRSLRLSCAASRFTFSTYAMHWVRQAPGKGLEWVTVISYDGDNKYYADSVKGRFTISRDNSKNTLYLQMNSLRTEDTAVYYCTRAGSGSYLSYFDYWGQGTLVTVSS
VL: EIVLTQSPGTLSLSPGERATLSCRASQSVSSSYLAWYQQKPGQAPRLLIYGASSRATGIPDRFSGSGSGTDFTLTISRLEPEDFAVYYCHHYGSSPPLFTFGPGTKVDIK
notes: expressed as IgG
For the molecule B1, the binding result in test [1] is given as “no binding”.

B2: CV2-37 (antibody, V domains shown)
VH: QVQLVQSGAEVKKPGASVKVSCRASGYTFTNFGISWVRQAPGLGLEWMGWISTYNGNTNYAQKLQGRVTMTTDTSTSTAYMELRSLRSDDTAVYYCARASGPYLLGLYWGQGTLVTVSS
VL: QSVLTQPPSVSGAPGQRVTISCTGSSSNIGAGYDVHWYQQLPGTAPKLLIYGNSNRPSGVPDRFSGSKSGTSASLAITGLQAEDEADYYCQSYDSSLSDVVFGGGTKLTVL
notes: expressed as IgG
For the molecule B2, the binding result in test [2] was “no binding”.

B3: CV2-26 (antibody, V domains shown)
VH: QVQLVESGGGVVQPGRSLRLSCAAAGFIFSSYAMNWVRQAPGKGLEWVAVISYDGSNKYYADSVKGRFTISRDNSKNTLNLQMNSLRAEDTAVYYCARGNGYIIIDYWGQGTLVTVSS
VL: QLVLTQSPSASASLGASVKLTCTLSSGHSSYAIAWHQQQPEKGPRYLMKFNSDGTHSKGDGIPDRFSGSSSGAERSLTISSLQSEDEADYYCQTWGTGGVFGGGTKLTVL
notes: expressed as IgG
Regarding B3, in test [3], the binding result is given as “no binding”.

B4: CV2-28 (antibody, V domains shown)
VH: QLQLQESGPGLVKPSETLSLTCTVSGGSVSSNAYYWGWIRQPPGKGLEWIGSVNYRGSTYYIPTLKSRITISVNTSKNQFSLKLTSVTAADTAVYYCARRGVALVTITYFDFWGQGALVTVSS
VL: QSVLTQPPSVSGAPGQRVTITCTGSSSNIGSGYDVHWYQQLPGTAPKLLIYGNTNRPSGVPDRFSGSKSGTSASLAITGLQAEDEAHYYCQSYDSSVVFGGGTKLTVL
notes: expressed as IgG
Regarding B4, in test [4], the binding result was “no binding”.

B5: CV2-32 (antibody, V domains shown)
VH: EVQLVESGGGLVQPGRSLRLSCTASGFTFGDYAMSWFRQAPGKGLEWVGFIRSKAYGGTTEYAASVKGRFTISRDDSKSIAYLQMNSLKTEDTAVYYCTMVWQQLHDAFDIWGQGTMVTVSS
VL: SYELTQPPSVSVSPGQTARITCSGDALPKQYAYWYQQKPGQAPVLVIYKDSERPSGIPERFSGSSSGTTVTLTISGVQAEDEADYYCQSADSSGTYSWVFGGGTKLTVL
notes: expressed as IgG
As for B5, in test [5], the binding result is on record as “no binding”.

B6: CV2-25 (antibody, V domains shown)
VH: EVQLVQSGAEVKKPGESLRISCKGSGYSFTSYWISWVRQMPGKGLEWMGKIDPSDSYTNYSPSFQGHVTISADKSISTAYLQWSSLKASDTAMYYCARQFGGELLGWFDPWGQGTLVTVSS
VL: DIQMTQSPSSLSASVGDRVTITCRASQGISNYLAWYQQKPGKVPKLLIYAASTLQSGVPSRFSGSGSGTDFTLTISSLQPEDVATYYCQKYNSAPFTFGPGTKVDIK
notes: expressed as IgG
B6: the binding result in [6] is given as “no binding”.

B7: CV2-35 (antibody, V domains shown)
VH: EVQLVESGGGLVQPGGSLRLSCAASGFTFSNCWMSWVRQAPGKGLEWVANIKQDGSEKYYVDSVKGRFTISRDNAKNSLYLQMNSLRAEDTAVYYCARMGNTAWYFDLWGRGTLVTVSS
VL: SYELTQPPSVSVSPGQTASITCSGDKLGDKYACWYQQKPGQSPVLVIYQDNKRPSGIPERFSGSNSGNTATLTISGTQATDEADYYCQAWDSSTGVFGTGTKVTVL
notes: expressed as IgG
As for B7, in [7], the binding result was “no binding”.

B8: CV2-24 (antibody, V domains shown)
VH: EVQLVESGGGLVKPGGSLRLSCAASGFTFSSYSMNWVRQAPGKGLEWVSSISSTSNYIYYADSVKGRFTISRDNAKNSLYLQMNSLRAEDTAVYYCARVSPNYDFWSGYYPDAFDIWGQGTMVTVSS
VL: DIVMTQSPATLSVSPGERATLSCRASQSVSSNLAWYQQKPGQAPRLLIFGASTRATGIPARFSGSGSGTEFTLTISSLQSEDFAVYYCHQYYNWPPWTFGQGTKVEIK
notes: expressed as IgG
Take B8: in test [8], the binding result is listed as “no binding”.

B9: CV2-22 (antibody, V domains shown)
VH: QVQLVESGGGVVQPGRSLRLSCAASGFTFSSYGMHWVRQAPGKGLEWVAVISYDGSNKYYADSVKGRFTISRDNSKNTLYLQMNSLRAEDTALYYCASEIVSFIGSSEDYWGQGTLVTVSS
VL: SYELTQPPSVSVSPGQTARITCSGDALPKKYAYWYQQKSGQAPVLVIYEDSKRPSGIPERFSGSSSGTMATLTISGAQVEDEADYCCYSTDSSDNHRRVFGTGTKVTVL
notes: expressed as IgG
On to B9, for which the binding result in [9] is “no binding”.

B10: CV2-23 (antibody, V domains shown)
VH: QVQLVESGGGVVQPGRSLRLSCAASGFTFNSFAMHWVRQAPGKGLEWVAVISYDGNNKYYADSVKGRFTISRDNSKNTLYLQMNSLRAEDTAVYYCARDRSGGYSCFDYWGQGTLVTVSS
VL: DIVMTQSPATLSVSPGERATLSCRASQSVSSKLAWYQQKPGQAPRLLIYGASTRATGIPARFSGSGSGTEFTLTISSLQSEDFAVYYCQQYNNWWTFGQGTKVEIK
notes: expressed as IgG
Regarding B10, the binding result in test [10] is “no binding”.

B11: CV2-39 (antibody, V domains shown)
VH: EVQLVESGGGLVQPGGSLRLSCSASGFTFSSYAMHWVRQAPGKGLEYVSGISSNGGSTYYADSVKGRITISRDNSKKTLYLQMSSLRAEDTAVYYCVKSSSRGYYWGQGTLVTVSS
VL: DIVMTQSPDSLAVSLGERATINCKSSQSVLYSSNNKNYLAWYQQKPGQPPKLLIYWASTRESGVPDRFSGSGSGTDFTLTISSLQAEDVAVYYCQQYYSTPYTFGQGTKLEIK
notes: expressed as IgG
B11: the binding result in test [11] is listed as “no binding”.

B12: CV2-29 (antibody, V domains shown)
VH: QVQLVESGGGVVQPGRSLRLSCAASGFTFSTYAMHWVRQAPGKGLEWVAVISYDGSNKYYADSVKGRFTISRDNSKNTLYLQMNSLRAEDTAVYYCARAYGGSYFYGMDVWGQGTTVTVSS
VL: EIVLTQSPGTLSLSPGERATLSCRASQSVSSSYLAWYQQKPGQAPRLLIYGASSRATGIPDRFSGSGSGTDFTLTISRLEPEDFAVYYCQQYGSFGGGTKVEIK
notes: expressed as IgG
With B12, the binding result in [12] is given as “no binding”.

B13: CV2-30 (antibody, V domains shown)
VH: QVQLVQSGAEVKKPGSSVKVSCKASGGTFSSYAITWVRQAPGQGLEWMGGIIPIFGTANYAQKFQGRVTITADESTNTAYMELSSLTSEDTAVYYCAKIGDYDSSGYYFDYWAQGTLVTVSS
VL: EIVLTQSPATLSLSPGERATLSCRASQSVSSFLAWYQQKPGQAPRLLIYDASNRATGIPARFSGSGSGTDFTLTISSLEPEDFAVYYCQQRSNWPPSITFGQGTRLEIK
notes: expressed as IgG
As for B13, the binding result in [13] was “no binding”.

B14: CV2-33 (antibody, V domains shown)
VH: QVQLVQSGAEVKKPGSSVKVSCKASGGTFSSYAISWVRQAPGQGLEWMGGIIPIFGTANYAQKFQGRVTITADESTSTAYMELSSLRSEDTAVYYCARISSYDSSGYSMDVWGQGTTVTVSS
VL: EIVLTQSPATLSLSPGERATLSCRASQSVSSYLAWYQQKPGQAPRLLIYDASNRATGIPARFSGSGSGTDFTLTISSLEPEDFAVYYCQQRSNWPPRVTFGPGTKVDIK
notes: expressed as IgG
As for B14, the binding result in test [14] was “no binding”.

B15: CV2-27 (antibody, V domains shown)
VH: QLQLQESGPGLVKPSETLSLTCTVSGGSISSSSYYWGWIRQPPGKGLEFIGSIYYSGSTYYNPSLKSRVTISVDTSKNQFSLKLSSVTAADTAVYYCATQEVVLVRPYNYNGMDVWGQGTTVTVSS
VL: QSALTQPASVSGSPGQSITLSCTGTSSDVGGYNYVSWYQQHPGKAPKLMIYEVSNRPSGVSNRFSGSKSGNTASLTISGLQAEDEADYYCSSYTSISTLVFGTGTKVTVL
notes: expressed as IgG
B15: the binding result in test [15] is reported as “no binding”.

B16: CV2-38 (antibody, V domains shown)
VH: QVQLVQSGAEVKKPGSSVKVSCKASGGTFSSYAISWVRQAPGQGLEWMGGIIPIFGTANYAQKFQGRVTITADESTSTAYMELSSLRSEDTAVYYCASARFITMVRGVINIYYYGMDVWGQGTTVTVSS
VL: QSALTQPASVSGSPGQSITISCTGTSSDVGGYNYVSWYQQHPGKAPKLMIYEVSNRPSGVSNRFSGSKSGNTASLTISGLQAEDEADYYCSSYTSSSTLLFGGGTKLRSC
notes: expressed as IgG
On to B16, for which the binding result in test [16] is “no binding”.

B17: CV9 (antibody, V domains shown)
VH: QLQLQESGPGLVKPSETLSLTCTVSGGSISSSSYYWGWIRQPPGKGLEWIGSIYYSGSTYYNPSLKSRVTISVDTSKNQFSLKLSSVTAADTAVYYCATHIVVVTATPNWYFDLWGRGTLVTVSS
VL: QSALTQPASVSGSPGQSITISCTGTSSDVGGYNYVSWYQQHPGKAPKLMIYDVSNRPSGVSNRFSGSKSGNTASLTISGLQAEDEADYYCSSYTSISTWVFGGGTKLTVL
notes: expressed as IgG
For the molecule B17, in test [17], the binding result was “no binding”.
